Data reported in PMC4122391, “Analysis of Functions of VIP1 and Its Close Homologs in Osmosensory Responses of Arabidopsis thaliana”.

T1: GST-VIP1ΔN164 (Arabidopsis thaliana, UniProt Q9MA75 165-341)
T1 sequence: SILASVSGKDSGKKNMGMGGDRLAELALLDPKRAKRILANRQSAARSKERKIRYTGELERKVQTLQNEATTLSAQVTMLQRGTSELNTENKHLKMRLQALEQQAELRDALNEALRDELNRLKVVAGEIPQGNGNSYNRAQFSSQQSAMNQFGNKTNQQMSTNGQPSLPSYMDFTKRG

B1: A1 (dsDNA)
DNA 1: CTCTCAAATGAGCTGTCTCTC
DNA 2: GAGAGACAGCTCATTTGAGAG
B2: A3 (dsDNA)
DNA 1: CTCTCAAATTAGCTGGCTCCA
DNA 2: TGGAGCCAGCTAATTTGAGAG

What was measured:
[1] = molecular target: T1, GST-VIP1ΔN164; test: competition; EMSA, CYP707A1 probe, competitor 0.5 µM; Gel shift with DIG-labeled probes as in cited ref. 17; competitors 0.5 µM unless stated; binding buffer, pH and temperature not given; conditions: protein: recombinant; tags: N-terminal GST; chain copies: 2; blunt
[2] = molecular target: T1, GST-VIP1ΔN164; test: competition; EMSA, CYP707A1 probe; inhibits to same extent as A1; Gel shift with DIG-labeled probes as in cited ref. 17; competitors 0.5 µM unless stated; binding buffer, pH and temperature not given; conditions: protein: recombinant; tags: N-terminal GST; chain copies: 2; blunt

Row | Binder | binding result [1] | binding result [2]
1 | B1 | binds | 
2 | B2 |  | binds
